Test results: patent US20260092097A1 (published 2026)

Target: T1, p53 peptide on HLA-A*02:01 (human)
T1 peptide: STPPPGTRV
Experiment: binding, other

- binding result: recognises
B1: c149scTCR (TCR, V domains shown)
Valpha: QKVTQTQTSISVMEKTTVTMDCVYETRDSSYFLFWYKQTASGEIVFLIRQDSYKKENATEGHYSLNFQKPKSSIGLIITATQIEDSAVYFCAMRDTNAYKVIFGKGTHLHVLP
Vbeta: EAAVTQSPRSKVAVTGGKVTLSCHQTNNHDYMYWYRQDTGHGLRLIHYSYVADSTEKGDIPDGYKASRPSQENFSLILELASLSQTAVYFCASSPHSYEQYFGPGTRLTVL
